Source: patent US20180155451A1 (published 2018)

T1: FcγRIIb extracellular domain with C-terminal His tag (human, UniProt P31994 43-217)
T1 construct: extracellular domain; Soluble receptor expressed in FreeStyle293 cells; analyte in Biacore; also called FcgRIIb; 2b; not shown: His tag at the C terminus
T1 sequence (looked up): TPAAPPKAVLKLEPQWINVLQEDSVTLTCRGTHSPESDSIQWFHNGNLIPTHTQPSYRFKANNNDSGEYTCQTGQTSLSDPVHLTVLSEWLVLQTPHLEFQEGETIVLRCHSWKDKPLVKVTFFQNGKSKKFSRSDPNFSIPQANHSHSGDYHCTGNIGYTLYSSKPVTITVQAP

B1: GpH7-A5/GpH7-B3 variant P329_01G/GpL16-k0 (antibody, human IgG1, kappa)
heavy 1: not shown
heavy 2: not shown
light: DIVMTQSPLSLPVTPGEPASISCQASESLVHSNRNTYLHWYLQKPGQSPQLLIYKVSNRFSGVPDRFSGSGSGTDFTLKISRVEAEDVGVYYCSQNTHVPPTFGQGTKVEIERTVAAPSVFIFPPSDEQLKSGTASVVCLLNNFYPREAKVQWKVDNALQSGNSQESVTEQDSKDSTYSLSSTLTLSKADYEKHKVYACEVTHQGLSSPVTKSFNRGEC
notes: He Ab: heterodimerized anti-glypican-3 IgG1, substitution in one H chain only; also called He Ab P329G
B2: GpH7-A5/GpH7-B3 variant A330_18N/GpL16-k0 (antibody, human IgG1, kappa)
heavy 1: not shown
heavy 2: not shown
light: B1 light
notes: He Ab: heterodimerized anti-glypican-3 IgG1, substitution in one H chain only; also called He Ab A330N
B3: GpH7-A5/GpH7-B3 variant A330_09D/GpL16-k0 (antibody, human IgG1, kappa)
heavy 1: not shown
heavy 2: not shown
light: B1 light
notes: He Ab: heterodimerized anti-glypican-3 IgG1, substitution in one H chain only; also called He Ab A330D
B4: GpH7-A5/GpH7-B3 variant E333_18N/GpL16-k0 (antibody, human IgG1, kappa)
heavy 1: not shown
heavy 2: not shown
light: B1 light
notes: He Ab: heterodimerized anti-glypican-3 IgG1, substitution in one H chain only; also called He Ab E333N
B5: GpH7-A5/GpH7-B3 variant A330_13S/GpL16-k0 (antibody, human IgG1, kappa)
heavy 1: not shown
heavy 2: not shown
light: B1 light
notes: He Ab: heterodimerized anti-glypican-3 IgG1, substitution in one H chain only; also called He Ab A330S
B6: GpH7-A5/GpH7-B3 variant A330_10E/GpL16-k0 (antibody, human IgG1, kappa)
heavy 1: not shown
heavy 2: not shown
light: B1 light
notes: He Ab: heterodimerized anti-glypican-3 IgG1, substitution in one H chain only; also called He Ab A330E
B7: GpH7-A5/GpH7-B3 variant I336_02A/GpL16-k0 (antibody, human IgG1, kappa)
heavy 1: not shown
heavy 2: not shown
light: B1 light
notes: He Ab: heterodimerized anti-glypican-3 IgG1, substitution in one H chain only; also called He Ab I336A
B8: GpH7-A5/GpH7-B3 variant E333_01G/GpL16-k0 (antibody, human IgG1, kappa)
heavy 1: not shown
heavy 2: not shown
light: B1 light
notes: He Ab: heterodimerized anti-glypican-3 IgG1, substitution in one H chain only; also called He Ab E333G
B9: GpH7-A5/GpH7-B3 variant A327_20W/GpL16-k0 (antibody, human IgG1, kappa)
heavy 1: not shown
heavy 2: not shown
light: B1 light
notes: He Ab: heterodimerized anti-glypican-3 IgG1, substitution in one H chain only; also called He Ab A327W
B10: GpH7-A5/GpH7-B3 variant A330_03V/GpL16-k0 (antibody, human IgG1, kappa)
heavy 1: not shown
heavy 2: not shown
light: B1 light
notes: He Ab: heterodimerized anti-glypican-3 IgG1, substitution in one H chain only; also called He Ab A330V
B11: GpH7-A5/GpH7-B3 variant A330_06M/GpL16-k0 (antibody, human IgG1, kappa)
heavy 1: not shown
heavy 2: not shown
light: B1 light
notes: He Ab: heterodimerized anti-glypican-3 IgG1, substitution in one H chain only; also called He Ab A330M
B12: GpH7-A5/GpH7-B3 variant A330_20W/GpL16-k0 (antibody, human IgG1, kappa)
heavy 1: not shown
heavy 2: not shown
light: B1 light
notes: He Ab: heterodimerized anti-glypican-3 IgG1, substitution in one H chain only; also called He Ab A330W
B13: GpH7-A5/GpH7-B3 variant E333_13S/GpL16-k0 (antibody, human IgG1, kappa)
heavy 1: not shown
heavy 2: not shown
light: B1 light
notes: He Ab: heterodimerized anti-glypican-3 IgG1, substitution in one H chain only; also called He Ab E333S
B14: GpH7-A5/GpH7-B3 variant A330_08L/GpL16-k0 (antibody, human IgG1, kappa)
heavy 1: not shown
heavy 2: not shown
light: B1 light
notes: He Ab: substitution in one H chain only; also called He Ab A330L
B15: GpH7-A5/GpH7-B3 variant I336_01G/GpL16-k0 (antibody, human IgG1, kappa)
heavy 1: not shown
heavy 2: not shown
light: B1 light
notes: He Ab: heterodimerized anti-glypican-3 IgG1, substitution in one H chain only; also called He Ab I336G

Each binder was assayed against T2, FcγRIa extracellular domain with C-terminal His tag (human, UniProt P12314 16-292) (assay: SPR (Biacore), antibody captured on antigen peptide chip, FcγR as analyte; binding relative to GpH7-A5/GpH7-B3/GpL16-k0 = 100).
T2 construct: extracellular domain; Soluble receptor expressed in FreeStyle293 cells; analyte in Biacore; also called FcgRI; FcgRIa; not shown: His tag at the C terminus
T2 sequence (P12314 16-292): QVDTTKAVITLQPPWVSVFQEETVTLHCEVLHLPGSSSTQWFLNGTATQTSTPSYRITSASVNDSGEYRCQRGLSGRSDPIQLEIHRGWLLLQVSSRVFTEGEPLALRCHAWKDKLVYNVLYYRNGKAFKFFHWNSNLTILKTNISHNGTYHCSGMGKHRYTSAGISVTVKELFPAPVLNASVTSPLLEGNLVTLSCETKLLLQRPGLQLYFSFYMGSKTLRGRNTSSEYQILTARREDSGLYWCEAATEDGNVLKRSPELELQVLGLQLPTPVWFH
Protocol: (§1) The heterodimerized antibodies He Abs in which one of the H chains was introduced with an alteration were assayed for their binding activities to each activating FcγR and inhibitory FcγR according to the method described in Example 4. […] The activating FcγRs in FIGS. 26, 27, 28, and 29 are FcγRIa, FcγRIIa (R), FcγRIIa (H), and FcγRIIIa, respectively.
(§2) Analysis of interaction between objective antibody and the FcγR was carried out using Biacore T100 (GE Healthcare). HBS-EP+ (GE Healthcare) was used as the running buffer, and the measurement temperature was set to 25° C. Chips produced by immobilizing the antigen peptide by the amine coupling method to a Series S Sencor Chip CM5 (GE Healthcare), or alternatively, chips produced by allowing preliminarily biotinylated antigen peptides to interact with and immobilize onto a Series S Sensor Chip SA (certified) (GE Healthcare) were used. Antibodies of interest were captured onto an antigen peptide-immobilized chip, and allowed to interact to each FcγR diluted with running buffer. To regenerate and repeatedly use the chip, the antibodies captured on the chip were washed off by reacting 10 mM glycine-HCl, pH 1.5.

He/Con_1a (Ia binding) | Binder
101 % of control (control = 100) | B1
106 % of control (control = 100) | B2
109 % of control (control = 100) | B3
96.6 % of control (control = 100) | B4
91.5 % of control (control = 100) | B5
107 % of control (control = 100) | B6
106 % of control (control = 100) | B7
103 % of control (control = 100) | B8
97.7 % of control (control = 100) | B9
106 % of control (control = 100) | B10
105 % of control (control = 100) | B11
108 % of control (control = 100) | B12
103 % of control (control = 100) | B13
107 % of control (control = 100) | B14
109 % of control (control = 100) | B15

The binders below were run against T1, FcγRIIb extracellular domain with … in the same assay as above.
Protocol: as §1, §2

He/Con_2b (IIb binding) | Binder
41.7 % of control (control = 100) | B1
63.7 % of control (control = 100) | B2
55.6 % of control (control = 100) | B3
76.1 % of control (control = 100) | B4
41.3 % of control (control = 100) | B5
70.1 % of control (control = 100) | B6
84.9 % of control (control = 100) | B7
81.4 % of control (control = 100) | B8
78.8 % of control (control = 100) | B9
52.4 % of control (control = 100) | B10
80.5 % of control (control = 100) | B11
76.1 % of control (control = 100) | B12
81.8 % of control (control = 100) | B13
70.5 % of control (control = 100) | B14
90.1 % of control (control = 100) | B15

These binders were tested against T2, FcγRIa extracellular domain with … (assay: SPR (Biacore); He/Con_1a divided by He/Con_2b (FcγRIIb)).
Protocol: as §1, §2

He_1a/2b (Ia/IIb) | Binder
2.42 | B1
1.67 | B2
1.95 | B3
1.27 | B4
2.22 | B5
1.53 | B6
1.25 | B7
1.26 | B8
1.24 | B9
2.01 | B10
1.3 | B11
1.41 | B12
1.26 | B13
1.52 | B14
1.21 | B15
